Molecular target: T1, Human MRP14 (Homo sapiens, UniProt P06702 1-114, limits assumed)
T1 sequence: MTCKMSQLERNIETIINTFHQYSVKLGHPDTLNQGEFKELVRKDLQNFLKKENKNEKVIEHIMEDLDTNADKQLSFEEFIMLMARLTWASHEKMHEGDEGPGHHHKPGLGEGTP
Experiment: statement within the sandwich ELISA example (Example 5)
Experimental: In order to determine the amount of MRP8/MRP14 polypeptide in various wound fluids, wound fluid samples from patients suffering from chronic diabetic wound were collected, venous ulcers as well as wound fluids from wounds of healthy persons. Wound fluids were isolated as described in Example 2 by means of drainage. For the determination of MRP8/MRP14 content, Maxi-Sorb Immunoplates (96-well, Nunc, Wiesbaden, Germany) were coated with polyclonal rabbit antisera against MRP14 by incubating each well overnight at 4° C. with 50 μl of coating solution (anti-MRP14 antibody, 2 μg/ml, in 0.1 M NaHCO3, pH 9.5). […] After removal of the blocking reagent, 50 μl of diluted wound fluid samples (buffer A: PBS containing 0.1% Tween 20) were added and allowed to react with the immobilized capture antibody for 1 h at 37° C. and then washed (3×) with buffer A. Bound antigen was detected by incubation (1 h, 37° C.) of each well with 50 μl of a biotinylated monoclonal antibody against MRP14 (clone S36.48, Dianova, 125 ng/ml antibody in buffer A). […] MRP8 and MRP14 spontaneously form noncovalently associated complexes to a quantitative extent which are detected by the ELISA system. […] The total polypeptide content per probe was determined using the BCA assay.

B1: Human MRP8 (other)
chain: MLTELEKALNSIIDVYHKYSLIKGNFHAVYRDDLKKLLETECPQYIRKKGADVWFKELDINTDGAVNFQEFLILVIKMGVAAHKKSHEESHKE
notes: Natural protein in human wound fluid and wound biopsy tissue (Western blot); also called calgranulin A
  binding result: binds
